Changes are numbered by the printed parent chain.
B1: VH1 + VL3 (antibody, V domains shown)
VH: QVQLVQSGAEVKKPGSSVKVSCKASGYAFSNFWMNWVRQAPGQGLEWMGQIYPGDGDTNYNGKFKGRVTITADKSTSTAYMELSSLRSEDTAVYYCARSYYRSAWFAYWGQGTLVTVSS
VL: EIVLTQSPATLSLSPGERATLSCRASQSIGTSIHWYQQKPGQAPRLLIYYASESISGIPARFSGSGSGTDFTLTISSLEPEDFAVYYCQQSNNWPLTFGGGTKVEIK
B2: VH1 + VL4 (antibody, V domains shown)
VH: B1 VH
VL: AIQLTQSPSSLSASVGDRVTITCRASQSIGTSIHWYQQKPGKAPKLLIYYASESISGVPSRFSGSGSGTDFTLTISSLQPEDFATYYCQQSNNWPLTFGGGTKVEIK
B3: VH2 + VL3 (antibody, V domains shown)
VH: B1 VH with S16A, I70M, A72R, K74T, A79V
VL: B1 VL
B4: VH5 + VL2 (antibody, V domains shown)
VH: EVQLVQSGAEVKKPGESLKISCKGSGYAFSNFWMNWVRQMPGKGLEWMGQIYPGDGDTNYNGKFKGQVTISADKSISTAYLQWSSLKASDTAMYYCARSYYRSAWFAYWGQGTLVTVSL
VL: B1 VL with L4M, L13V, D70E, E79Q, P80S
B5: Chimeric IgG (antibody, V domains shown)
VH: QVQLQQSGAELMKPGASVKISCKAIGFTFNYFWIEWVKQRPGHGLEWIGEILPGTGSTNYNEKFKGKAIFTADTSSNTAYMQLRSLTSEDSAVYYCVRYDYTSSMDYWGQGTSVTVSS
VL: DIVLTQSPGSLAVSLGQSVTISCRASESVQYSGTSLMHWYQQKPGQPPKLLIYGASNVETGVPARFSGSGSGTDFSLNIHPVEEDDIAMYFCQQNWKVPWTFGGGTKLEIKR
notes: Chimera of the parental mouse antibody with a human Fc (captured by anti-human Fc); also called chimeric antibody; parent chimeric antibody
B6: VH5 + VL3 (antibody, human IgG1, kappa, V domains shown)
VH: EVQLVQSGAEVKKPGESLKISCKGSGFTFNYFWIEWVRQMPGKGLEWMGEILPGTGSTNYNEKFKGQVTISADKSISTAYLQWSSLKASDTAMYYCARYDYTSSMDYWGQGTLVTVSS
VL: EIVLTQSPATLSLSPGERATLSCRASESVQYSGTSLMHWYQQKPGQAPRLLIYGASNVETGIPARFSGSGSGTDFTLTISSLEPEDFAVYYCQQNWKVPWTFGQGTKVEIKR
notes: Full-length humanized IgG expressed in HEK293 and purified on protein A. Constant regions not specified; also called #23 (inferred from 5x5 numbering)

molecular target: T1, MUC1 on HCT116/MUC1 cells (human, UniProt P15941 24-1255); experiment: flow cytometry on HCT116/MUC1 cells; antibody at 3.703704 nM
T1 sequence (P15941 24-1097, chain 1 of 2): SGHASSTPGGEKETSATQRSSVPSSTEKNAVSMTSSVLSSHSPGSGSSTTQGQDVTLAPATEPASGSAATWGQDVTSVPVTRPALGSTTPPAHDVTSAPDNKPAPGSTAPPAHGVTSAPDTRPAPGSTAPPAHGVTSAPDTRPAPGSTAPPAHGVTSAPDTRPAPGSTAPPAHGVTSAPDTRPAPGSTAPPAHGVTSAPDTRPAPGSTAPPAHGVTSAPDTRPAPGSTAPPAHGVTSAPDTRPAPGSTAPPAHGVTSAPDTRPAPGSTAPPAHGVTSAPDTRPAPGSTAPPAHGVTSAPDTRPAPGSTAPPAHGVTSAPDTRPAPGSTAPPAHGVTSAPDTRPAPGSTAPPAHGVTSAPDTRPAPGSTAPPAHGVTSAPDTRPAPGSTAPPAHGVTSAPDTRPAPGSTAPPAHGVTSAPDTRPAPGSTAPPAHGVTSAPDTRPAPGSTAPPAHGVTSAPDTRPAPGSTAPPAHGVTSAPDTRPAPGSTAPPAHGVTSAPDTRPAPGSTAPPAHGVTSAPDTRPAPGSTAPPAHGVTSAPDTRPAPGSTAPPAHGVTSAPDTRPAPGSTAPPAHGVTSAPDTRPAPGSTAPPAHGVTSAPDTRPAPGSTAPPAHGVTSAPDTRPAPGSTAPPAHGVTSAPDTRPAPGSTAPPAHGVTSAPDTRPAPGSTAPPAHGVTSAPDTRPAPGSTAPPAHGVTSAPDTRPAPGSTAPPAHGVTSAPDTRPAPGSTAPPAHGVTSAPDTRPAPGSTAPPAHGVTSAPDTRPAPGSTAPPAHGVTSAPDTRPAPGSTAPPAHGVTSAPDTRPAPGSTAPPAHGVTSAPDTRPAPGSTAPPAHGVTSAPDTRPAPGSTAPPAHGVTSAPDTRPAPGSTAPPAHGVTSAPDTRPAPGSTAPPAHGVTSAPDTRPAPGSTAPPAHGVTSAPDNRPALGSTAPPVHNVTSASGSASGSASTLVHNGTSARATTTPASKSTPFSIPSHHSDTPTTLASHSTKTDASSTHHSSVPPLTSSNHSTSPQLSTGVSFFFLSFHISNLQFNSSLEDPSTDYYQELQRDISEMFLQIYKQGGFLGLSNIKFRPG
T1 sequence (P15941 1098-1255, chain 2 of 2): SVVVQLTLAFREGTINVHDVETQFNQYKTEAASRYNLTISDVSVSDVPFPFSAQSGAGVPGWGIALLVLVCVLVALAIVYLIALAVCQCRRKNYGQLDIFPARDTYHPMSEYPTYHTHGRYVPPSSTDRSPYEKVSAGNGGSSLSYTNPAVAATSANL

Binder | FACS titration signal
B1 | 10.4
B2 | 16.6
B3 | 13.9
B4 | 17.3

molecular target: T1, MUC1 on HCT116/MUC1 cells; experiment: flow cytometry on HCT116/MUC1 cells; antibody at 0.015242 nM

Binder | FACS titration signal
B1 | 5.76
B2 | 5.73
B3 | 8.96
B4 | 5.88

molecular target: T1, MUC1 on HCT116/MUC1 cells; experiment: flow cytometry on HCT116/MUC1 cells; antibody at 0.411523 nM

Binder | FACS titration signal
B1 | 6.22
B2 | 10.1
B3 | 6.48
B4 | 9.71

molecular target: T1, MUC1 on HCT116/MUC1 cells; experiment: flow cytometry on HCT116/MUC1 cells; antibody at 11.11111 nM

Binder | FACS titration signal
B1 | 20.2
B2 | 32.3
B3 | 21.5
B4 | 33.4

molecular target: T1, MUC1 on HCT116/MUC1 cells; experiment: flow cytometry on HCT116/MUC1 cells; antibody at 0.137174 nM

Binder | FACS titration signal
B1 | 9.47
B2 | 5.5
B3 | 9.04
B4 | 9.2

molecular target: T1, MUC1 on HCT116/MUC1 cells; experiment: flow cytometry on HCT116/MUC1 cells; antibody at 0.045725 nM

Binder | FACS titration signal
B1 | 8.96
B2 | 5.99
B3 | 5.46
B4 | 6.76

molecular target: T1, MUC1 on HCT116/MUC1 cells; experiment: flow cytometry on HCT116/MUC1 cells; antibody at 1.234568 nM

Binder | FACS titration signal
B1 | 7.09
B2 | 7.61
B3 | 10.6
B4 | 11.8

molecular target: T1, MUC1 on HCT116/MUC1 cells; experiment: flow cytometry on HCT116/MUC1 cells; antibody at 100 nM

Binder | FACS titration signal
B1 | 41.7
B2 | 56.2
B3 | 43.8
B4 | 48.9

molecular target: T1, MUC1 on HCT116/MUC1 cells; experiment: flow cytometry on HCT116/MUC1 cells; antibody at 300 nM

Binder | FACS titration signal
B1 | 42
B2 | 53.9
B3 | 44.1
B4 | 46.3

molecular target: T1, MUC1 on HCT116/MUC1 cells; experiment: flow cytometry on HCT116/MUC1 cells; antibody at 33.33333 nM

Binder | FACS titration signal
B1 | 41
B2 | 57.8
B3 | 43
B4 | 48.1

molecular target: T2, MUC1 on HCT116/MUC1 cells (human, UniProt P15941 24-1255); experiment: flow cytometry titration on HCT116/MUC1 cells
T2 construct: whole, on cells; Human colon cancer cell line engineered to express MUC1
Procedure: (§1) FACS titration of humanized antibodies. For affinity ranking of humanized antibodies to HCT116/MUC1 cells (a human colon cancer cell line engineered to express MUC1), the purified antibodies were subject to FACs titration. In brief, HCT116/MUC1 cells were cultured and harvested by centrifugation. About 2.5×10⁵ cells per well were washed with PBS twice and incubated in 200 μl of serial dilutions of antibodies for 30 min at 4° C. After washing with PBS., secondary antibody (3 μg Goat anti-Human IgG(H+L) I Fluor 647) was added to the cells and incubated for 30 min at 4° C. After washing with PBS, cells were analyzed for binding (EC₅₀) by using FACS Calibur (BD Bioscience, San Jose, Calif.) and Flowjo software.
(§2) FACS titration of humanized antibodies. Each of the 7 antibodies was titrated for its binding capacity to HCT116/MUC1 cells at various concentrations and the results are mentioned in Table 8 and with a graphical representation in FIG. 5.
T2 sequence (P15941 24-1255): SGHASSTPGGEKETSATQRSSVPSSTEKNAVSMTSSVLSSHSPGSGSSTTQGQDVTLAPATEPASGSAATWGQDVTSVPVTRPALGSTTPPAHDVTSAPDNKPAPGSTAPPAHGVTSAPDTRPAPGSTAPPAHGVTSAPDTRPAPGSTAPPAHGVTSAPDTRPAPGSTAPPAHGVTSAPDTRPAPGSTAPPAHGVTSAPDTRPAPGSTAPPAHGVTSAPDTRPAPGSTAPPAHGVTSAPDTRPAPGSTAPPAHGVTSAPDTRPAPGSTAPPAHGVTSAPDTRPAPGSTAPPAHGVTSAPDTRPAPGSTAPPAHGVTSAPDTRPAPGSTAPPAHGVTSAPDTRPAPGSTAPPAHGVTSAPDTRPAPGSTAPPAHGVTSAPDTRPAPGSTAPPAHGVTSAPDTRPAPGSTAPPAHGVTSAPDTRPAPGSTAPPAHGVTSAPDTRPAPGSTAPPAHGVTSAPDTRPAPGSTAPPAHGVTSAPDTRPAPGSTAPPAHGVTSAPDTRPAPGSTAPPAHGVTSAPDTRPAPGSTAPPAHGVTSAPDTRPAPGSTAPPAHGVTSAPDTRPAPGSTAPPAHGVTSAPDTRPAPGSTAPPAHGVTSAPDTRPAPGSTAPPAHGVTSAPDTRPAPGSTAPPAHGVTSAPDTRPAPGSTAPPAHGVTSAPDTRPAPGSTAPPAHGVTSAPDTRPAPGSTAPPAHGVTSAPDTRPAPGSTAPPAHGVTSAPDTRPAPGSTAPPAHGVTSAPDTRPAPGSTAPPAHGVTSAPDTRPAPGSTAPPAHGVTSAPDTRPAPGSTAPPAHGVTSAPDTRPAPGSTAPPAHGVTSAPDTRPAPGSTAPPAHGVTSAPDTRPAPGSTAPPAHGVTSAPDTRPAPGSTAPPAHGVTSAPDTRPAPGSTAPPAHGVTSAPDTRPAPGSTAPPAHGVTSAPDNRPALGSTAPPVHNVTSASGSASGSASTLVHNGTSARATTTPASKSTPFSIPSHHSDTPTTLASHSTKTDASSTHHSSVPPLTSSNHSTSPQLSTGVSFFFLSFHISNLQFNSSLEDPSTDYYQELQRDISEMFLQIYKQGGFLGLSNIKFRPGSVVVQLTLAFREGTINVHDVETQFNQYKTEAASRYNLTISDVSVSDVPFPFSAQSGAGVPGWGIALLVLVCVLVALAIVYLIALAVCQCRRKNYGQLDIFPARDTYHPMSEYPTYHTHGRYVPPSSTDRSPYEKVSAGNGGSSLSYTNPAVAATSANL

Binder | EC50 [nM]
B5 | 6.08
B6 | 12.2

molecular target: T1, MUC1 on HCT116/MUC1 cells; experiment: flow cytometry titration on HCT116/MUC1 cells
Procedure: as §1, §2

Binder | EC50 [nM]
B1 | 13.2
B2 | 9.8
B3 | 13.3
B4 | 7.69
